# Data published in the supplement of paper PMC10724198.
# ± gives the standard deviation of the averaged measurements.
# Test system: Saccharomyces cerevisiae
# Test: protein stability index of tFT-peptide fusion (C-terminal peptide) (PSI (0-1 scale)); higher = more stable (slower turnover)
# Conditions: genetic background: wild type; temperature: 30 C
# 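Further: PSI is a weighted mean of sequencing reads over stability bins, variants kept only with over 10 reads, mCherry proximal and sfGFP distal, peptide attached via GGGS linker.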
row,Sequence,protein stability index
1,LPASLPPPPPPY,0.756 ± 0.058
2,LPCGPRGLTRPP,0.661 ± 0.0091
3,LPDSYAVVPPTS,0.642 ± 0.068
4,LPDVFLSSFFCL,0.709 ± 0.027
5,LPFCLPAPLPPP,0.708 ± 0.04
6,LPFFFPRLFSPP,0.691 ± 0.061
7,LPFPSPLPSPPP,0.702 ± 0.035
8,LPGSVLLFPSFS,0.747 ± 0.035
9,LPHLFPSTPPAS,0.723 ± 0.025
10,LPHSYFCPTFFF,0.675 ± 0.019
11,LPIKRLPLPTVP,0.682 ± 0.015
12,LPIKRLWKGLHG,0.652 ± 0.1
13,LPLGSTVVSGES,0.632 ± 0.034
14,LPLHHYAHKFDL,0.746 ± 0.1
15,LPLIISTNYTPD,0.723 ± 0.11
16,LPLPLPWHSCPP,0.721 ± 0.029
17,LPLPVPPPPLPS,0.654 ± 0.034
18,LPLRYFSFPDPF,0.6949 ± 0.0035
19,LPPAPAPPQCST,0.675 ± 0.052
20,LPPCAPPLPPSS,0.706 ± 0.067
21,LPPFFPLLSPPF,0.664 ± 0.031
22,LPPFPRPPPPSP,0.719 ± 0.029
23,LPPGIPLRSSPP,0.683 ± 0.022

row,Sequence,protein stability index
1,LPPLLPPFHPPR,0.701 ± 0.06
2,LPPLPPRSPPPP,0.731 ± 0.02
3,LPPLRVIANIRG,0.659 ± 0.019
4,LPPPAPPSSFPP,0.661 ± 0.056
5,LPPPIPPPLSLA,0.703 ± 0.013
6,LPPPLPPSLRLR,0.602 ± 0.083
7,LPPPPLTTLLHT,0.604 ± 0.043
8,LPPPPRPLPRSL,0.732 ± 0.018
9,LPPPRPTRSPTH,0.617 ± 0.034
10,LPPRIPRPDVSF,0.72 ± 0.0075
11,LPPRPPESLHLP,0.724 ± 0.03
12,LPPRPPRRPESP,0.663 ± 0.055
13,LPPSLPTHLSHP,0.7629 ± 0.0041
14,LPPSPPPFPPLP,0.642 ± 0.011
15,LPPTHPPPPPAL,0.7 ± 0.045
16,LPPVLPLLPSPP,0.692 ± 0.044
17,LPQVKLGRIYTY,0.683 ± 0.032
18,LPQVYSGIMRFV,0.6243 ± 0.0036
19,LPRFAPPNPALP,0.658 ± 0.071
20,LPRGLRAISCVE,0.569 ± 0.024
21,LPRPPPPPPPPP,0.759 ± 0.042
22,LPRSLSGCGAGV,0.711 ± 0.015
23,LPRSSGSTTPYP,0.688 ± 0.025

row,Sequence,protein stability index
1,LPSKSTVALGPL,0.633 ± 0.046
2,LPSPSATPPRPP,0.634 ± 0.034
3,LPSPSPPPPLLL,0.677 ± 0.015
4,LPSPSPPPPLLP,0.743 ± 0.022
5,LPSPSSLPAPPV,0.677 ± 0.031
6,LPSRSLPSPGPP,0.714 ± 0.027
7,LPSSSPHPADPS,0.643 ± 0.08
8,LPVCVRLSLCDV,0.6144 ± 0.004
9,LPVLCSRVFVSS,0.517 ± 0.023
10,LPVLGSFRLIWL,0.626 ± 0.016
11,LPVPPPHPPCPL,0.6497 ± 0.0036
12,LQPRLLSIVPYN,0.635 ± 0.03
13,LQSSSCLLYPSS,0.681 ± 0.026
14,LRAHHHSAKFQY,0.6608 ± 0.0056
15,LRARMACPLIIS,0.663 ± 0.025
16,LRASVFPVLDMC,0.718 ± 0.075
17,LRCSVKQNLGIV,0.655 ± 0.045
18,LRDTAPEPGPAP,0.6895 ± 0.0014
19,LREETKREDDKQ,0.814 ± 0.061
20,LRENKGPAPPLL,0.651 ± 0.0087
21,LRFDGKASHSST,0.6813 ± 0.0014
22,LRFRGKSQNDYD,0.67 ± 0.058
23,LRFTYSFIPPSV,0.631 ± 0.00064

row,Sequence,protein stability index
1,LRGGWVESCGGW,0.669 ± 0.027
2,LRHRAYPKLFPA,0.708 ± 0.011
3,LRIILPPLAQPE,0.639 ± 0.019
4,LRKNRKHINKKI,0.626 ± 0.034
5,LRLATTLFPLSF,0.797 ± 0.12
6,LRLECESIKRYT,0.61 ± 0.055
7,LRLPAPPLASAC,0.596 ± 0.006
8,LRMHFPPHPSSL,0.691 ± 0.067
9,LRNGSFFLVFSC,0.531 ± 0.016
10,LRPPLRPRPIPL,0.6983 ± 0.0036
11,LRPPPPRGPSPP,0.689 ± 0.023
12,LRPRPPTLPPSR,0.638 ± 0.04
13,LRRAPPSPPPPP,0.716 ± 0.054
14,LRRGRLVSSAAF,0.802 ± 0.077
15,LRRTKWRTLQAP,0.701 ± 0.048
16,LRSGGVPVFWGS,0.721 ± 0.043
17,LRSPHPLPPPPP,0.732 ± 0.062
18,LRSPPPVSHRLP,0.822 ± 0.048
19,LRSRVGYVMPVR,0.5988 ± 0.0057
20,LRVKVPLLGLWA,0.557 ± 0.025
21,LRYENSQRKELR,0.653 ± 0.055
22,LSAEAGAGLRAM,0.684 ± 0.034
23,LSALPPRPFSYR,0.7053 ± 0.004

row,Sequence,protein stability index
1,LSAPPPPPPPSP,0.7026 ± 0.003
2,LSATWLKAIVYW,0.578 ± 0.012
3,LSETTAYLQQAS,0.693 ± 0.1
4,LSFDAVSVGFGG,0.691 ± 0.064
5,LSGSRAFVTVVL,0.644 ± 0.034
6,LSGSTQLLYFFQ,0.6651 ± 0.0028
7,LSGTGTIIKARA,0.67 ± 0.14
8,LSGVYPQACSRL,0.734 ± 0.014
9,LSHMRVSLTRPR,0.707 ± 0.029
10,LSHSHLYLFFHH,0.6957 ± 0.0027
11,LSIPPSLLSLPL,0.702 ± 0.025
12,LSLALGSPGALP,0.703 ± 0.07
13,LSLCVVFRAPSR,0.686 ± 0.042
14,LSLLLLPPFPHF,0.758 ± 0.026
15,LSLLPPPPPPSP,0.688 ± 0.011
16,LSLRGRLNYRMM,0.647 ± 0.011
17,LSLSPLHRSSFR,0.6954 ± 0.0056
18,LSPGSSPAVSGF,0.722 ± 0.13
19,LSPGTPVSAPRL,0.655 ± 0.029
20,LSPLSHPPSPAP,0.6806 ± 0.0014
21,LSPLSVPAPPSP,0.655 ± 0.027
22,LSPPLSLPPASP,0.731 ± 0.032
23,LSPPPRPPLAPP,0.65 ± 0.039

row,Sequence,protein stability index
1,LSPPPSLSSRPP,0.706 ± 0.064
2,LSPPRSPPSRPP,0.645 ± 0.029
3,LSPQKRDSAVTR,0.638 ± 0.095
4,LSPRSSGCPRWF,0.677 ± 0.019
5,LSPTQSTLPTPP,0.673 ± 0.01
6,LSQASPGSPRPA,0.698 ± 0.011
7,LSRLLVYSRGIV,0.629 ± 0.093
8,LSRPTSWLLSFL,0.777 ± 0.12
9,LSSARPMNLPPG,0.67 ± 0.057
10,LSSGLLIFPIVF,0.631 ± 0.031
11,LSSHLHCVTLFT,0.606 ± 0.059
12,LSSPCAFTCPLL,0.7139 ± 0.0062
13,LSSPPAPPPPPR,0.677 ± 0.13
14,LSTPWADPTSSP,0.716 ± 0.096
15,LSTSINTIIPGP,0.71 ± 0.14
16,LSVFAFRGVFRF,0.638 ± 0.045
17,LSVFCALPFVAL,0.7026 ± 0.0048
18,LSVSLCWRHFFS,0.693 ± 0.012
19,LTCRASNGIQAA,0.677 ± 0.021
20,LTGCFRSSRRCC,0.665 ± 0.02
21,LTGTVQPKLILP,0.722 ± 0.051
22,LTLGAIRLLLRC,0.496 ± 0.037
23,LTLGSSGTSFLS,0.698 ± 0.016

row,Sequence,protein stability index
1,LTLPPACFPRLR,0.723 ± 0.059
2,LTLQIWNLVSHL,0.599 ± 0.071
3,LTNLGSDRCRLQ,0.623 ± 0.0074
4,LTSWYGNKLVAV,0.588 ± 0.029
5,LTVIRSRDVIGP,0.641 ± 0.055
6,LTVPCSSSFPLL,0.647 ± 0.095
7,LTWRVDECPPYS,0.712 ± 0.038
8,LVCKRQGQANFI,0.689 ± 0.06
9,LVCPFFLSSRIF,0.653 ± 0.025
10,LVDAGGSTRGKP,0.643 ± 0.0069
11,LVFGGRMRVYRP,0.678 ± 0.016
12,LVFGLGSVYLWG,0.602 ± 0.059
13,LVFTDDGGVRSL,0.609 ± 0.03
14,LVGFGGGGHGVV,0.696 ± 0.019
15,LVGPPDPAHAVH,0.718 ± 0.031
16,LVGTYTPRFTPC,0.643 ± 0.1
17,LVHRGRRGSNIE,0.7537 ± 0.0011
18,LVLPTSRPRCFI,0.661 ± 0.027
19,LVQTREKIELVS,0.643 ± 0.027
20,LVQVGDKRFNRL,0.651 ± 0.01
21,LVRAWRGGVGGV,0.669 ± 0.0098
22,LVRCDSSSPLPP,0.6863 ± 0.0042
